This is an account of results in patent publication US20160137732A1.

This assay deals with complement protein C1q (human) (UniProt P02745). As to the kind of experiment: cell-based or functional assay.
Sequence of UniProt P02745 (P02745 23-245 limits assumed, chain 1 of 3): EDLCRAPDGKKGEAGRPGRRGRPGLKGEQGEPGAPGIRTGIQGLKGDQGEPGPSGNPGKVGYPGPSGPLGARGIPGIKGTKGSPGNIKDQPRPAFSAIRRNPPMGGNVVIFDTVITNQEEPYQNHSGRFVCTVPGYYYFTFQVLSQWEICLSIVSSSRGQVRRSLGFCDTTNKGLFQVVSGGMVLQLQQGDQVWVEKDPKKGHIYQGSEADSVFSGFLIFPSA
Sequence of UniProt P02745 (P02746 28-253 limits assumed, chain 2 of 3, further chain): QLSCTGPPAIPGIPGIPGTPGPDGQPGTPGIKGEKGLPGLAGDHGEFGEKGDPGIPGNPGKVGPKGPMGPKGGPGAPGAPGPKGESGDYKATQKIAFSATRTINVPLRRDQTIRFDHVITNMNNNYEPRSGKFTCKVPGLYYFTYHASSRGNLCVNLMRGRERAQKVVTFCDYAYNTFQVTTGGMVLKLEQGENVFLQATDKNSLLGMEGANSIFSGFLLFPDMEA
Sequence of UniProt P02745 (P02747 29-245 limits assumed, chain 3 of 3, further chain): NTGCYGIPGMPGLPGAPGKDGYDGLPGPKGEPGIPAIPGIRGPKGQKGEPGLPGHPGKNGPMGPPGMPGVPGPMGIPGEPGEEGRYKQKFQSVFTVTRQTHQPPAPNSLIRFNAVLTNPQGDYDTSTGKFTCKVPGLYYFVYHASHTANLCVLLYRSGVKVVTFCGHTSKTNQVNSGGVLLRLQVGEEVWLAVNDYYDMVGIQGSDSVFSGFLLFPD
In the case of “Hu1D10-IgG1 double mutant S324N/I332F (antibody)”, the average fold-increase in the EC50 value compared with wild-type Hu1D10-IgG1 antibody (CDC) was in the range of 13 to 16 fold and the average fold-increase in the maximum percent lysis (CDC) is 1.3 to 1.4 fold.

For “Hu1D10-IgG1 double mutant S324N/I332M (antibody)”, the average fold-increase in the EC50 value compared with wild-type Hu1D10-IgG1 antibody (CDC) lay in the range of 13 to 16 fold and the average fold-increase in the maximum percent lysis (CDC) lay within 1.3 to 1.4 fold. Substance “Hu1D10-IgG1 double mutant S324W/I332F (antibody)” showed an average fold-increase in the EC50 value compared with wild-type Hu1D10-IgG1 antibody (CDC) of 13 to 16 fold and an average fold-increase in the maximum percent lysis (CDC) of 1.3 to 1.4 fold. Regarding “Hu1D10-IgG1 double mutant S324W/I332M (antibody)”, the average fold-increase in the EC50 value compared with wild-type Hu1D10-IgG1 antibody (CDC) was in the range of 13 to 16 fold and the average fold-increase in the maximum percent lysis (CDC) fell in the range of 1.3 to 1.4 fold.

“Hu1D10-IgG1 single mutant I332F (antibody)” came in with a fold-increase in the EC50 value compared with wild-type Hu1D10-IgG1 antibody (CDC) of 2.5 fold and a fold-increase in the maximum percent lysis (CDC) of 1.2 to 1.4 fold. For the substance “Hu1D10-IgG1 single mutant I332G (antibody)”, the fold-increase in the EC50 value compared with wild-type Hu1D10-IgG1 antibody (CDC) amounted to 1.5 fold and the fold-increase in the maximum percent lysis (CDC) lay within 1.2 to 1.4 fold. “Hu1D10-IgG1 single mutant I332M (antibody)” returned a fold-increase in the EC50 value compared with wild-type Hu1D10-IgG1 antibody (CDC) of 2.5 fold and a fold-increase in the maximum percent lysis (CDC) of 1.2 to 1.4 fold. “Hu1D10-IgG1 single mutant S324M (antibody)” had a fold-increase in the EC50 value compared with wild-type Hu1D10-IgG1 antibody (CDC) of 2 fold. On the same count and under the same terms, the result for “Hu1D10-IgG1 single mutant S324Y (antibody)” reads 2 fold.
